This sample holds only a part of the variants without activity.
B1: TPR 5TU (parent)
chain: GGAUCUUCUCGAUCUAACAAAAAAGACAAAUCUGCCACAAAGCUUGAGAGCAUCUUCGGAUGCAGAGGCGGCAGCCUUCGGUGGCGCGAUAGCGCCAACGUUCUCAACUAUGACACGCAAAACGCGUGCUCCGUUGAAUGGAGUUUAUCAUG

Variants of: B1
Assay: polymerase ribozyme fitness, log enrichment relative to wild type (log ratio); higher = more active; in vitro selection for triplet polymerase activity
In short: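 Fitness is a logarithmic measure of how a genotype enriched relative to the wild type, with replicate averages weighted by inverse variance. The logarithm uses base 2, and enrichment came from Illumina sequencing of input and output libraries. Those libraries were PCR-built, transcribed mutants of each subunit of a heterodimeric triplet polymerase ribozyme, passed through one triplicate in vitro selection round that included frozen incubation at −7 °C, gel excision of extended constructs and streptavidin-bead capture. Genotypes were kept only if they had ≥10 input reads and ≥1 read per output.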

Row | Variant | polymerase ribozyme fitness (log ratio)
1 | C51U U56A A73U U78G A91U G141C G152A | -3.97
2 | A52G U82C G92U C93U G126A | -1.76
3 | C51U C95A A98U C116G | 0.822
4 | A52G G86U C96G U144C U151C | ≤ -4.2
5 | C51U G83U | -0.266
6 | A52C U55C G83A U151A G152A | ≤ -4.2
7 | A52G G62A C85U | -1.4
8 | A52G A73G | -0.266
9 | C51U C57A G83C A106G | -0.97
10 | C51U C72U G92C A98G U127G A138C G140A | ≤ -4.2
11 | A52U A66G C87G A97G | ≤ -4.2
12 | A52G A60G C75U G88U G92A C95U C116U | ≤ -4.2
13 | A52C U55A G74U G88U G92U C105G A107G | ≤ -4.2
14 | A52G U56G A60C C85G G143U | ≤ -4.2
15 | A52G G83U U101A A115U | -3.39
16 | A52U A73U G92U | -3.66
17 | A52C G62C A120G G140U | -4.1
18 | A52G G84A G136A | -0.512
19 | A52G G84U | -1.32
20 | A52G G84A | -1.03
21 | A52G G83C C105A | -2.55
22 | C51U U53A U61A A97C G140A G143A | ≤ -4.2
23 | A52G C87U G141A U148A | ≤ -4.2
24 | A52G U53A C57A A73U C87G C93A C132U A150C | ≤ -4.2

Row | Variant | polymerase ribozyme fitness (log ratio)
25 | A52C U55A G59U | 0.0736
26 | A52G A66U A91U | ≤ -4.2
27 | C51U C75G G88A U130A | ≤ -4.2
28 | C51U G59A C85G A137U | ≤ -4.2
29 | C51U U56A C57A C105G A122G | -2.19
30 | A52C G67C G83U C108U G124U | ≤ -4.2
31 | C51U G92C U135C | -3.1
32 | A52G C76U C93G | -2.91
33 | A52G A98U | -2.02
34 | C51U C85U C96G A119C G141A | -2.65
35 | C51G U56A A106U | ≤ -4.2
36 | A52G G58U A66G G70U G92A G100A C116A U148A | ≤ -4.2
37 | A52U C93U A119U G124U | -3.24
38 | A52G U102G G124A | -3.08
39 | A52G A121C | -0.337
40 | A52U A73U A89C G92C C129G A137U | ≤ -4.2
41 | A52G G58U C87U | -2
42 | A52G C69A | -3.71
43 | A52G C93G C96U U104C A150G | ≤ -4.2
44 | A52G U55A A91C A97U G112A A150U | ≤ -4.2
45 | C51U A52C U82G U135G | -3.54
46 | A52C A89U C96G G141U | -1.47
47 | A52C U55G G58C G59A A66C | ≤ -4.2
48 | A52C U55A U56A G86C | -4.01

Row | Variant | polymerase ribozyme fitness (log ratio)
49 | A52G C63U C93U | -1.7
50 | A52C G92U G152U | -3.32
51 | C51U U56A A73U G86A | -4.02
52 | A52C U148A | -4.18
53 | C51U G81C C87U C116A G124A U134A U148A | ≤ -4.2
54 | A52G C96U A122U | -0.85
55 | A52G G58C C79U A98U U101G C108A | ≤ -4.2
56 | C51U C75U C118U | -1.3
57 | C51U G86U | -1.45
58 | C51U G86A | -2.13
59 | A52C U53A G86A C87U C105A A106U | ≤ -4.2
60 | A52G G88A C118A C123U G141C | ≤ -4.2
61 | A52C G58U G65U C69A G80C C103A C108G | ≤ -4.2
62 | A52G C75A U82A C95A | ≤ -4.2
63 | A52U C116A | 0.243
64 | A52C G74C C108U A113G U145G | ≤ -4.2
65 | A52C U55A U82C | -2.36
66 | C51U G84U | -1.52
67 | C51U G84A | -0.489
68 | A52U C69U G83C C116G | -4.13
69 | A52C G143C | -3.51
70 | A52G C85U G86U C118G U144C C149G | ≤ -4.2
71 | A52G A137C | -3.28
72 | A52C C116G | -1.21

Row | Variant | polymerase ribozyme fitness (log ratio)
73 | C51U C69G C118G A142C C149G | ≤ -4.2
74 | C51U C95U | -1.69
75 | C51U C95G | -1.68
76 | A52G A89U G124U G136C | -3.18
77 | A52C C85G C87U G133A G143C | -4.07
78 | C51U C131G | -3.49
79 | A52G C96U U101A A142U A150G | ≤ -4.2
80 | A52C G67C A89C A106G A107G | ≤ -4.2
81 | C51U G84A C96A C149U | -2.56
82 | C51U G83C A106G A122U A142U | ≤ -4.2
83 | A52U C96U U101G U145G | -4.1
84 | A52G C114A | -3.48
85 | C51U A89C C96U A142U | -2.78
86 | C51U C93U | -2.53
87 | C51U C93A | -2.34
88 | A52G U53A C54U C93G G112U | ≤ -4.2
89 | A52G G58C G68A C76A C85U U90G G117U | ≤ -4.2
90 | A52G C57G A73U G84A | -3.44
91 | C51U U134A | -2.32
92 | A52G G88U | ≤ -4.2
93 | C51U C87U A121U | -0.813
94 | C51U C85G A115C | -1.9
95 | A52G U144A | -0.831
96 | C51U G88U U90C G94A C95U A147G | ≤ -4.2

Row | Variant | polymerase ribozyme fitness (log ratio)
97 | C51U A91G G100A A110U A121U | ≤ -4.2
98 | C51U U82A C95U | -1.29
99 | A52C U77G C79U C87A C95U | ≤ -4.2
100 | A52C A122G | -1.4
101 | A52G G84U U144G | -1.56
102 | A52C C103A A147C | ≤ -4.2
103 | A52C C87U | -0.789
104 | A52C C93G | -3.65
105 | C51U A73G G92U G124A | -0.37
106 | A52G C87U C93U C131A G136A G143C U145G U146G | ≤ -4.2
107 | A52G C79U G92A C116G | ≤ -4.2
108 | C51U U53A G65U G84U C93A C116G U135G | ≤ -4.2
109 | A52G C57G C87U | -1.27
110 | C51U C76U C96U A137U U144C U151A | ≤ -4.2
111 | A52G U90A A142G | ≤ -4.2
112 | C51U G92U | -1.86
113 | C51U U56A | -0.892
114 | C51U A60G C85A | -3.39
115 | C51U G65C C87U | ≤ -4.2
116 | A52C C57U C63A C72G U77A C85A A107U A122U G136C U148A | ≤ -4.2
117 | A52G G84A C118U C123G | -1.29
118 | A52C G84A C116G A120U | -1.12
119 | A52G U55A C87G | ≤ -4.2
120 | A52C C85A | -3.22

Row | Variant | polymerase ribozyme fitness (log ratio)
121 | C51U U61C C76U G94C A121U C125G U145A | ≤ -4.2
122 | C51U G58A | -1.32
123 | A52G G71U C96U | -4.1
124 | C51U G58U U77G C96A | -4.18
125 | A52C C69G G84U A115C | ≤ -4.2
126 | C51U A73G C96G C123U | -0.999
127 | A52U A150G | -1.24
128 | C51U U55A U56A G58C U82A A150C | ≤ -4.2
129 | C51U C54U C85A A98U | -2.81
130 | A52U C95A C103G C116G G133U | ≤ -4.2
131 | A52G C63U C93U U145G C149U | -4.11
132 | A52C A60G | -0.764
133 | C51U G92U C99A A106G C123G C129U | -2.74
134 | A52G A60C | -1.96
135 | A52C G83U | -2.01
136 | C51U G94A C118U | -1.44
137 | C51U C96G U144A | -1.45
138 | A52G G58C C99U | -0.284
139 | A52C C69A C96A | -3.18
140 | A52C C96U A119U U130G | ≤ -4.2
141 | C51U U53A C93A G124U | -3.59
142 | A52U C57A C95A A97U | -2.33
143 | A52G A73G C99U G117A | -1.7
144 | A52U C75U A147U | -2.82

Row | Variant | polymerase ribozyme fitness (log ratio)
145 | C51U U53A C96G G124U A147U | -3.84
146 | A52C A98U | -0.983
147 | A52C U53A G65A A66C C79U C149U | ≤ -4.2
148 | A52G G81A G83A A98U | -1.22
149 | A52G C76U C85G C123A U144G | -0.879
150 | C51U A98U U135C U144A | -3.82
151 | A52C G83U A106G | -2.56
152 | C51U A60U G84A A98G A121C G143U A147C | ≤ -4.2
153 | A52U C87U C103U | -2.81
154 | A52C C85A A121G | -1.8
155 | A52C A98G C132G | ≤ -4.2
156 | C51U G70U G88A G94U A106C | ≤ -4.2
157 | C51U C54U C76A G86A | -2.96
158 | A52G U78C A89U | -1.24
159 | A52C G84A G88C | -4.09
160 | A52C A113C | -3.36
161 | A52C A113U | -3.88
162 | A52G G68U C99G | ≤ -4.2
163 | C51U A89G A97G G143U | -3.43
164 | A52C A60C C79U C93A G152U | ≤ -4.2
165 | A52G C125U | -0.198
166 | C51U C116U A121C G152U | -3.78
167 | A52C U53A | -3.29

Reference: the RNAGym collection of RNA variant scans (doi:10.1073/pnas.2313332121)
